Assay [1] has as its target T1, Glutathione S-transferase (GST)-tagged AITR (human, UniProt Q9Y5U5 26-139).
T1 construct: also called GST-AITR antigen; GST-AITR analyte; not shown: Glutathione S-transferase (GST) tag
T1 sequence (looked up): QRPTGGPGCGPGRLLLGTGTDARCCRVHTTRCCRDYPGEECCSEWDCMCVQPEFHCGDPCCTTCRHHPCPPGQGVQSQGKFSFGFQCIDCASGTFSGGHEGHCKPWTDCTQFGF
The experiment in a line: KD ratio against parental IRTCA-A, repeated from the SPR of Table 3.

Assay [2] has as its target T1, Glutathione S-transferase (GST)-tagged …. The experiment in a line: SPR, Fab against the AITR antigen. A general note: Surface plasmon resonance follows binding to a sensor surface in real time, without labels.
The target is the same in assay [3]. Briefly: SPR, Fab against the AITR antigen; ratio against parental IRTCA-A.
Assay [4] shares this target. Briefly: KD ratio against parental IRTCA-A, repeated from the SPR of Table 3. This is another data set of the same source.
Assay [5] has the same target. The description is as above. This is another data set of the same source.
Assay [6] shares this target. The experiment in a line: SPR (Biacore T200), antibody captured by anti-human IgG(Fc), GST-AITR analyte 3.12-100 nM. As to the method:
This example assesses the ability of mutant anti-AITR antibodies to bind to an AITR antigen recognized by the parent antibody, H1F1. Surface plasmon resonance was used in order to determine the ability of mutant anti-AITR antibodies to bind to AITR.
A Biacore T200 with a CMS sensor chip was run using HBS-EP running buffer at pH 7.4 and 3M magnesium chloride regeneration buffer. Anti-human IgG(Fc) antibodies were immobilized to the CMS chip via amine coupling and 6 minute injections at a flow rate of 5 μL/minute were performed with an immobilization buffer of 10 mM sodium acetate at pH 5.0. The capture antibodies tested were parent antibody H1F1 and mutant antibodies M69 and M74. Glutathione S-transferase (GST)-tagged AITR analyte was injected at concentrations of 3.12, 6.25, 12.5, 25, 50 and 100 nM, with an association time of 150 seconds and a dissociation time of 240 seconds.

For assay [7], the target named is T2, R12 AA 75-139.
T2 construct: also called GST fusion protein construct R12 (AITR deletion mutant)
T2 GST fusion protein: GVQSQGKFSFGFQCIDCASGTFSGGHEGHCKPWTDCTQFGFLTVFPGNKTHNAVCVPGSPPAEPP
Briefly: Western blot and ELISA on GST-AITR deletion constructs. The method, then: Binding of the anti-AITR antibodies IRTCA-A (A27), H1F1, H1F1M69 and H1F1M74 to the GST-fusion proteins R1-R12 was assessed using Western blot analysis, in which the GST-fusion proteins were resolved by 12% SDS-PAGE and subjected to immunoblotting using the antibodies IRTCA-A, H1F1, H1F1M69 and H1F1M74. Anti-Human IgG-HRP (1:5000; Jackson Laboratories, Bar Harbor, Me.) was used as the secondary antibody. Detection of chemiluminescence was obtained by using SuperSignal West Pico Chemiluminescent Substrate (Pierce, Rockford, Ill.).
(A western blot detects proteins with antibodies after separation by electrophoresis.)

Assay [8] concerns the target T3, human AITR expressed on the cell surface (human, UniProt Q9Y5U5 26-241).
T3 sequence (looked up): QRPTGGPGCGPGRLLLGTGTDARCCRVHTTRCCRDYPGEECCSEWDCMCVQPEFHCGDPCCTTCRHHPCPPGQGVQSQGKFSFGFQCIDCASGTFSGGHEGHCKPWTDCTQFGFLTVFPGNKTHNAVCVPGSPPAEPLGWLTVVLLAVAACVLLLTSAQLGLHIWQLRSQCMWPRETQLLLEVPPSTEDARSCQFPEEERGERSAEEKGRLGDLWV
The experiment in a line: cell-based or functional assay.

For orientation: Kd means the constant that tells how readily two partners part at equilibrium. As a reminder, the koff is a measure of how fast the partners let go of each other. A higher koff goes with fast dissociation. For orientation: kon means the rate constant with which the complex forms. Low values mean slow association, high ones fast association.

B1: Parental IRTCA-A Fab (Fab, V domains shown)
VH: QVQLVQSGTQVKMPGASVKVSCKASGYTFDDYGIGWVRQAPGQGLEWMGWISPYTHRTNSSPKLQDRVTMTTDTSTSTAYMELRSLRSDDTAVYYCARDGTYYDFWSGYFDNGAFDIWGQGTLVTVSS
VL: QSVVTQPPSVSAAPGQKVTISCSGSTSNIGNNYVSWYQQLPGTAPKLLIYDNYKRPSGIPDRFSGSKSGTSATLGITGLRTGDEADYFCGTWDSSLNAWVFGGGTKLTVL
With B1, the “KD Ratio” value in assay [1] is 1 fold. Further, in assay [2], the Ka amounted to 8.74e+06 M⁻¹; the affinity, expressed as Kd, was 114 nM; the koff turned out to be 0.00134 s⁻¹; the kon was found to be 11700 M⁻¹ s⁻¹. For the same molecule, in assay [3], the “KD Ratio” value stood at 1 fold. The “KD Ratio” value in assay [4] came out at 1 fold. For the same molecule, the “KD Ratio” value in assay [5] came out at 1 fold.

B2: H1F1.M69 (H1F1.H2.J1/H1F1.L3.J1) (antibody, V domains shown)
VH: QVQLVQSGAQVKMPGESLKVSCKASGYTFTDYGMGWVRQAPGQGLEWMGWISPYTGRTNSSDKFQGRVTMTRDTSTSTAYMELRSLRSEDTAVYYCARDGTYYDFWSGYFDNNAFDIWGQGTLVTVSS
VL: QSVVTQPPSVSGAPGQRVTISCSGSTSNIGNNYVSWYQQLPGTAPKLLIYDNYKRPSGVPDRFSGSKSGTSASLAITGLQTEDEADYYCGTWDSSLNAWVFGGGTKLTVL
notes: Made in Expi293 cells from HC and LC DNA
In turn, B2 came in with a Kd in assay [6] of 0.657 nM. Also, the binding result in assay [7] is reported as “no binding”.

B3: IRTCA-A (A27) anti-AITR monoclonal antibody (antibody, V domains shown)
VH: QVQLVQSGTQVKMPGASVKVSCKASGYTFDDYGIGWVRQAPGQGLEWMGWISPYTHRTNSSPKLQDRVTMTTDTSTSTAYMELRSLRSDDTAVYYCARDGTYYDFWSGYFDNGAFDIWGQGTLVTVSS
VL: QSVVTQPPSVSAAPGQKVTISCSGSTSNIGNNYVSWYQQLPGTAPKLLIYDNYKRPSGIPDRFSGSKSGTSATLGITGLRTGDEADYFCGTWDSSLNAWVFGGGTKLTVL
notes: Monoclonal antibody form, detected with anti-human IgG-HRP; constant regions not specified for this antibody
B3: the binding result in assay [7] is “no binding”.

B4: IRTCA-A1 (Clone L1E9) Fab (Fab, V domains shown)
VH: QVQLVQSGTQVKMPGASVKVSCKASGYTFDDYGIGWVRQAPGQGLEWMGWISPYTHRTNSSPKLQDRVTMTTDTSTSTAYMELRSLRSDDTAVYYCARDGTYYDFWSGYFDNGAFDIWGQGTLVTVSS
VL: QSVVTQPPSVSAAPGQKVTISCSGSTSNIGNNYVSWYQQLPGTAPKLLIYDNYKRPSGIPDRFSGSKSGTSATLGITGLRTGDEADYFCGSWESGSNAYKFGGGTKLTVL
Take B4: the “KD Ratio” value in assay [1] was determined as 8.2 fold. Besides, in assay [2], the Ka was found to be 7.18e+07 M⁻¹, binding was put at a Kd of 13.9 nM, the off-rate constant (koff) came out at 0.000412 s⁻¹ and the kon was determined as 29600 M⁻¹ s⁻¹. For the same molecule, the “KD Ratio” value in assay [3] was 8.2 fold. The “KD Ratio” value in assay [4] came out at 8.2 fold. Further, the “KD Ratio” value in assay [5] turned out to be 8.2 fold.

B5: IRTCA-A10 (Clone H1A10) Fab (Fab, V domains shown)
VH: QVQLVQSGTQVKMPGASVKVSCKASGYTFDDYGIGWVRQAPGQGLEWMGWISPYTHRTNSSPKLQDRVTMTTDTSTSTAYMELRSLRSDDTAVYYCARDGTYYDFWSGYFDNAAFDSWGQGTLVTVSS
VL: QSVVTQPPSVSAAPGQKVTISCSGSTSNIGNNYVSWYQQLPGTAPKLLIYDNYKRPSGIPDRFSGSKSGTSATLGITGLRTGDEADYFCGTWDSSLNAWVFGGGTKLTVL
Turning to B5, the “KD Ratio” value in assay [1] came to 8.4 fold. For the same molecule, in assay [2], the Ka came to 7.34e+07 M⁻¹, the Kd stood at 13.6 nM, the off-rate (koff) turned out to be 0.000565 s⁻¹ and the kon was determined as 41500 M⁻¹ s⁻¹. Further, in assay [3], the “KD Ratio” value amounted to 8.38 fold. Further, the “KD Ratio” value in assay [4] is 8.4 fold. For the same molecule, in assay [5], the “KD Ratio” value stood at 8.4 fold.

B6: IRTCA-A15 (Clone H1F1) Fab (Fab, V domains shown)
VH: QVQLVQSGTQVKMPGASVKVSCKASGYTFDDYGIGWVRQAPGQGLEWMGWISPYTHRTNSSPKLQDRVTMTTDTSTSTAYMELRSLRSDDTAVYYCARDGTYYDFWSGYFDNNAFDIWGQGTLVTVSS
VL: QSVVTQPPSVSAAPGQKVTISCSGSTSNIGNNYVSWYQQLPGTAPKLLIYDNYKRPSGIPDRFSGSKSGTSATLGITGLRTGDEADYFCGTWDSSLNAWVFGGGTKLTVL
For the molecule B6, the “KD Ratio” value in assay [1] came to 44.4 fold. Moreover, in assay [2], the Ka amounted to 3.9e+08 M⁻¹, the Kd turned out to be 2.57 nM, the koff is 0.000334 s⁻¹ and the kon was 130000 M⁻¹ s⁻¹. Moreover, the “KD Ratio” value in assay [3] was 44.4 fold. Besides, the “secretion of IFN-γ by CD4+ T cells at 0.5 µg, against IRTCA-A” value (shortened to “secretion of IFN-γ by CD4+ T cells”) in assay [8] was not below 200%. In addition, the “KD Ratio” value in assay [4] amounted to 44.4 fold. Also, the “KD Ratio” value in assay [5] turned out to be 44.4 fold.

B7: H1F1 anti-AITR monoclonal antibody (antibody, V domains shown)
VH: QVQLVQSGTQVKMPGASVKVSCKASGYTFDDYGIGWVRQAPGQGLEWMGWISPYTHRTNSSPKLQDRVTMTTDTSTSTAYMELRSLRSDDTAVYYCARDGTYYDFWSGYFDNNAFDIWGQGTLVTVSS
VL: QSVVTQPPSVSAAPGQKVTISCSGSTSNIGNNYVSWYQQLPGTAPKLLIYDNYKRPSGIPDRFSGSKSGTSATLGITGLRTGDEADYFCGTWDSSLNAWVFGGGTKLTVL
notes: Bivalent antibody captured by anti-human IgG(Fc); constant regions not specified for this antibody; also called parent antibody H1F1
In assay [6], B7 came in with a Kd of 0.789 nM. Besides, in assay [7], the binding result was “no binding”.

B8: H1F1.M74 (H1F1.H8/H1F1.L3.J2) (antibody, V domains shown)
VH: QVQLVQSGAQVKMPGESLKVSCKASGYTFDDYGMGWVRQAPGQCLEWMGWISPYTGRTNSSDKFQGRVTMTRDTSTSTAYMELRSLRSEDTAVYYCARDGTYYDFWSGYFDNNAFDIWGQGTLVTVSS
VL: QSVVTQPPSVSGAPGQRVTISCSGSTSNIGNNYVSWYQQLPGTAPKLLIYDNYKRPSGVPDRFSGSKSGTSASLAITGLQSEDEADYYCGSWESGSNAYKFGGGTKLTVL
notes: as for B2
In turn, B8 returned a dissociation constant (Kd) in assay [6] of 0.966 nM.

B9: IRTCA-A12 (Clone H2A10) Fab (Fab, V domains shown)
VH: QVQLVQSGTQVKMPGASVKVSCKASGYTFDDYGIGWVRQAPGQGLEWMGWISPYTHRTNSSPKLQDRVTMTTDTSTSTAYMELRSLRSDDTAVYYCARDGTYYDFWSGYFDNATFDFWGQGTLVTVSS
VL: QSVVTQPPSVSAAPGQKVTISCSGSTSNIGNNYVSWYQQLPGTAPKLLIYDNYKRPSGIPDRFSGSKSGTSATLGITGLRTGDEADYFCGTWDSSLNAWVFGGGTKLTVL
With B9, in assay [1], the “KD Ratio” value was found to be 27.6 fold. In assay [2], this molecule had a Ka of 2.42e+08 M⁻¹, a Kd of 4.13 nM, an off-rate (koff) of 0.000288 s⁻¹ and a kon of 69700 M⁻¹ s⁻¹. Besides, the “KD Ratio” value in assay [3] stood at 27.6 fold. Moreover, the “secretion of IFN-γ by CD4+ T cells” value in assay [8] was not below 200%. The “KD Ratio” value in assay [4] was 27.6 fold. Moreover, the “KD Ratio” value in assay [5] stood at 27.6 fold.

B10: IRTCA-A14 (Clone H2F8) Fab (Fab, V domains shown)
VH: QVQLVQSGTQVKMPGASVKVSCKASGYTFDDYGIGWVRQAPGQGLEWMGWISPYTHRTNSSPKLQDRVTMTTDTSTSTAYMELRSLRSDDTAVYYCARDGTYYDFWSGYFDTAAFDIWGQGTLVTVSS
VL: QSVVTQPPSVSAAPGQKVTISCSGSTSNIGNNYVSWYQQLPGTAPKLLIYDNYKRPSGIPDRFSGSKSGTSATLGITGLRTGDEADYFCGTWDSSLNAWVFGGGTKLTVL
As to B10, the “KD Ratio” value in assay [1] was 30.1 fold. In assay [2], this molecule registered a Ka of 2.64e+08 M⁻¹, a dissociation constant Kd of 3.79 nM, a koff of 0.00027 s⁻¹ and a kon of 71100 M⁻¹ s⁻¹. For the same molecule, the “KD Ratio” value in assay [3] was 30.1 fold. Also, the “secretion of IFN-γ by CD4+ T cells” value in assay [8] is not below 200%. Besides, in assay [4], the “KD Ratio” value was 30.1 fold. Besides, the “KD Ratio” value in assay [5] was found to be 30.1 fold.

The record behind these values is patent US20190330358A1 (EUTILEX, published 2019).
